This data set is described as follows: amyloid nucleation score (Sup35N fusion, yeast selection) (log enrichment); library NNK1; higher = more nucleation; inactive = no reads after selection. In a few lines: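 Three technical output replicates were used for random libraries. Psi-negative yeast expressing peptides of 20 random codons fused to Sup35N were induced with 100 μM copper sulfate for 24 hours and grown 7 days at 30°C on medium lacking adenine and uracil, and input and output plasmid inserts were Illumina-sequenced, excluding sequences with under 100 input reads. The nucleation score is the DiMSum log enrichment of output over input reads, centred on the mode score of non-aggregating sequences.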

± gives the uncertainty stated by the source.

On to GICLIAVVRGLIERGNGETE, for which the amyloid nucleation score came to 0.206 ± 1.1.
NVGRHV had an amyloid nucleation score of 0.151 ± 0.9.
The same measure for SEMGYPGWTGKERKRLSNWA: -0.989 ± 0.8.
The same measure for LLRLFALLTLNNLV: -0.296 ± 0.31.
As to TSRGGLFYSGVLICAGGIRM, the amyloid nucleation score was -0.032 ± 0.54.
Substance RSYESCRAWLDEDGSVPIEC showed an amyloid nucleation score of 1 ± 0.49.
The same measure for HFRVSDKDL: 1.2 ± 0.38; for VLLGSCWVFKSQKGRGPSSC: -0.51 ± 0.69; for ILQIYLMWQVW: 4.85 ± 0.05.
The substance SHPMDKRLWEKSYKAVGVCV returned an amyloid nucleation score of 0.174 ± 0.58.
Consider LVISETWGSCFWNSVDSCAG, for which the amyloid nucleation score was found to be 0.815 ± 0.66.
With FDMCSGISGD, the amyloid nucleation score turned out to be 0.839 ± 0.36.
On to SFDRCCRGFAWISYGEQTAY, for which the amyloid nucleation score came out at 0.219 ± 0.53.
As to GLSGSLSSVIYSSEVRSR, the amyloid nucleation score was found to be 0.036 ± 0.29.
The result for ANSVRWTCMLVIIFQYRPTS reads 2.5 ± 0.15.
The same measure for SHGVVYGFIMLVMEEYLRQQ: -0.376 ± 0.27; for TVLYPGPGAVS: 0.155 ± 0.73; for SKIHYMF: -0.942 ± 0.57.
The result for SVNRCGVYFTEGFFSLRWS reads 1.13 ± 0.25; that for PANIVAFGGLMSIPLVLPVL, -0.104 ± 0.4.
With VSPIMFAYSMSCMSFYGEHG, the amyloid nucleation score was determined as 5.04 ± 0.1.
The result for YVYRFNFLNFVW reads 1.93 ± 0.12; that for FRDFMMTFMFPRDMSSGAVG, 0.067 ± 0.4.
The result for HGNCWSPTRAVRQYGVNAPM reads 0.81 ± 0.36; that for WYSTFGAMKKLGTYPCSGVN, -0.46 ± 1; that for ELVKFIVRADNDSWVGRASV, 0.267 ± 0.93.
DTSYGLQRVCKGR registered an amyloid nucleation score of 0.429 ± 0.53.
The same measure for TVFFPFLTNSRGDRLRDCWM: -0.65 ± 1.1; for FIIPDRVRFLKGMTSFVNSS: -0.349 ± 1.
The substance ATAVYMSVLMVPDLRMKAEG registered an amyloid nucleation score of 1.5 ± 0.7.
The result for GYTRGDDSGAVHSLSWVFAG reads -0.361 ± 1.7; that for FLLGSYILWECNHGSHHMSG, 0.06 ± 0.23.
The same measure for GGYGSIECFRSLVREKCCSV: 0.086 ± 0.62; for RCQNRH: -0.221 ± 0.46; for RCCYCLGLFVWATCVGGVRT: 3.1 ± 0.24.
The result for WVCRSISPLVRTSLPRYWRN reads “inactive”.
TCMWMILLFINR: the amyloid nucleation score was 0.608 ± 0.27.
The same measure for IFALWTHKTPRQIAPLGTQK: -0.835 ± 1.3.
Consider MISIS, for which the amyloid nucleation score came to 0.088 ± 0.26.
In the case of LSFIKRMTMNMLTKLD, the amyloid nucleation score was 1.68 ± 0.13.
The substance LVVCAVVGSDLLWL yielded an amyloid nucleation score of 0.848 ± 0.72.
The substance LRPYFLGCRRSKKPKALLAG returned an amyloid nucleation score of 0.252 ± 0.8.
LLSFGTFTGPKRVYLSLSMV showed an amyloid nucleation score of 0.059 ± 0.86.
The result for TSMVNI reads 0.084 ± 0.88.
Consider SKFTYRV, for which the amyloid nucleation score is -0.302 ± 0.38.
For the substance LGFAFQNVTKALNLTFAYGS, the amyloid nucleation score was determined as 0.81 ± 0.15.
The same measure for LFSWICEN: 0.142 ± 0.28.
For SYPTKLPWFGGGYNRGSMSS, the amyloid nucleation score was -0.481 ± 0.58.
Consider NMSLSWRTNRYAWPMVCLIR, for which the amyloid nucleation score worked out at 0.182 ± 0.23.
QNRLS displayed an amyloid nucleation score of 2.28 ± 0.61.
The same measure for ILYFMLSRFTVVN: 0.881 ± 0.76; for LCIIYVNYSGLLMTVNISSF: “inactive”; for LSGTNASIWY: -0.212 ± 0.35.
The same measure for SLVVVGCWLAANQESK: 1.28 ± 0.33.
The same measure for MSEENSTNIIYSIVPKSL: “inactive”; for LMTLDYSTYQHRRATDVWDG: -0.65 ± 1.3.
FRGRDSCGHH returned an amyloid nucleation score of 0.101 ± 0.44.
The same measure for RFKRWGKR: 0.39 ± 0.41; for VAGFPVEDRLRQISSWAVSG: -1.07 ± 0.62; for EFEPLSFQLVVELMRKFL: 1.52 ± 0.19.
Turning to FIHALLSNYVSIIFSNDRIC, the amyloid nucleation score is 2.31 ± 0.59.
On to VVKSSTPSSDPTTASRIWLL, for which the amyloid nucleation score was -0.26 ± 0.43.
For QVLQNCRGTFDDRILLFNGI, the amyloid nucleation score is -0.288 ± 0.8.
As for LSAMWKSPMHRERRTWGM, the amyloid nucleation score turned out to be 0.096 ± 0.42.
SLEDEEQLYLANSIREGLAV showed an amyloid nucleation score of 0.76 ± 0.51.
The same measure for CGWNFTVIHFSLDSVSHLLY: -0.568 ± 0.66.
TAVGSRGFPRNHLRPKNTSG: the amyloid nucleation score was -0.309 ± 0.53.
KLILWGRLSANNFYYSFGFL: the amyloid nucleation score was -0.214 ± 0.27.
The same measure for FSARTTVENAEDRSFDNQLV: 0.312 ± 0.4; for RKWNS: 0.152 ± 0.72; for NKMGFSRCSLQGDVKFF: -0.482 ± 0.51.
The same measure for CSNEK: 0.319 ± 0.97.
The result for SDVLYIFTYMDKCQRSRLGV reads 0.096 ± 0.26; that for TRHGLGRFVHSRTVVFIGIW, -0.642 ± 0.82; that for RENYRAGTFVYGSPRLGPAW, 0.44 ± 0.88.
Take TTTCMRYGLIVC: the amyloid nucleation score came to 1.7 ± 0.52.
The result for IRMVL reads 0.697 ± 0.44; that for SLEVRNRCNVYVAAANLLVM, 2.76 ± 0.095.
Consider SMIPSNGTRLMLDSLTKYID, for which the amyloid nucleation score result was “inactive”.
The result for MLNINVTYGFGDLREWNRIF reads 1.16 ± 0.13; that for WMWGGGRWRRVPRRCMVVGR, -0.054 ± 0.4; that for YHKTYIRYWAIVFDMMVRFG, 0.372 ± 1.4.
RFHNRFLYLFKFIQAQINKC displayed an amyloid nucleation score of 0.187 ± 0.41.
The result for NGWILNLVWTVKNTSMTLIW reads 0.678 ± 0.51.
TIYISVSNRSVDSKDMGYGS: the amyloid nucleation score result was “inactive”.
As to IVVSQPVFEGYIWLLNVAGG, the amyloid nucleation score was found to be 4.42 ± 0.094.
The same measure for LKYLR: 1.14 ± 0.15; for IFCVMVLSWSAVDPALSVA: -1.03 ± 0.81.
For IRIFNKHGHGG, the amyloid nucleation score was -0.664 ± 0.36.
Consider YYHRSNTLLSIYVSKLLTNN, for which the amyloid nucleation score was -0.183 ± 1.2.
As for HRGTDLSLRSWVDWLHTLRG, the amyloid nucleation score was 0.67 ± 0.57.
The result for GTKWVTLQRGGRLGMGRRSD reads 0.562 ± 1.2.
RVAYSGEL showed an amyloid nucleation score of 0.196 ± 0.83.
The substance VYVDVSFPPPVFEWCGPQIT had an amyloid nucleation score of 0.392 ± 0.69.
The result for RSRGCPRIFNGAKC reads -0.392 ± 0.23.
For CMSSLLFD, the amyloid nucleation score came to 0.921 ± 0.49.
The same measure for LCMMMVQPLQGLSSAVTWSQ: -0.54 ± 0.35.
The result for TLKHLNATISHT reads 1.1 ± 0.71; that for GSPVCTRRRPASLPPLRQVH, 0.208 ± 0.45.
In the case of GYMSRVTLVVCTMMIRRNGD, the amyloid nucleation score came to 0.906 ± 0.24.
The same measure for VLYQRVRTGTTYGRARRLDV: -0.622 ± 1.7; for RIPASFRITYVDSIKCKPF: 4.15 ± 0.088.
Turning to FAYKVLTLMNKPEGKVQSDV, the amyloid nucleation score is -1.41 ± 2.4.
The result for VHEMNSRTDFYKIKKSGTLV reads 0.158 ± 0.29; that for DLVSTVKDGAECDDKEECSL, -0.147 ± 0.26.
The result for AIFVCNH reads 0.229 ± 0.5; that for AVQFCCWDMRTVIAS, 5.76 ± 0.066.
For NFRHFILVYLMPFT, the amyloid nucleation score entry is “inactive”.
The result for RLCWQDIGTLFVSWPRMIFV reads 0.071 ± 0.45; that for ILYGISSFESIADWAGLMSV, 0.535 ± 0.84.
The result for HNVLRSHTSRYRYVM reads 0.226 ± 0.7; that for RFLSQNGNLIPGRRLPTGVR, 0.54 ± 0.54.
The result for NAIGILRHLTRMFPFD reads 0.747 ± 0.44.
Regarding YVMQSATDVETSNSGIS, the amyloid nucleation score stood at 0.525 ± 0.84.
As for MRWSIFRSTWFCAYSSLVSS, the amyloid nucleation score came out at 0.131 ± 0.5.
As to TIWDSRTSFVYS, the amyloid nucleation score came out at 0.254 ± 0.56.
Turning to RNMVSLRHSEDVICVQDTTP, the amyloid nucleation score was -0.729 ± 0.34.
The result for SNSVRNRRIFKKSTVRH reads -0.055 ± 0.36; that for IIIRCKSVVA, -0.656 ± 1.9; that for YKNFKFSDDTRMFVNNVSVY, 1.25 ± 0.56.
Take VFLVTIWRSIMVLWNTVW: the amyloid nucleation score is -0.284 ± 0.47.
The result for WYPMYQNTYRAEERVT reads 0.42 ± 0.64.
The result for VRLLEHSANPSMGKMNMNVG reads 0.231 ± 0.74; that for CSNDLECFCDFNCRL, -0.033 ± 0.39; that for TMYPLIRLYGSMSRNETGEW, 0.437 ± 0.33.
The same measure for CRLFYSWNVNMYRNMLLRWI: -0.767 ± 0.33; for HNGRVFVMRWLYGVLGECG: -1.31 ± 1.1; for CLKFSIFDGE: 0.127 ± 0.6.
Consider NISDTIC, for which the amyloid nucleation score came to 0.474 ± 0.85.
The same measure for AYTLRYTFRYKYWLRYRLAG: 0.861 ± 0.58.
In turn, EDHVVYQSADRFLRNCNWEY registered an amyloid nucleation score of 0.266 ± 0.43.
TVSIGDVTRFVMAVASTTF yielded an amyloid nucleation score of 0.18 ± 1.1.
The result for NLWKVFCSCLNRDMKALGNW reads -1.04 ± 0.51; that for SNFFVRFNTVTNFSMWDEYY, “inactive”; that for GLLMISISYLITRMVFMDNI, 0.412 ± 0.39.
The result for FYGMDLSVSRFF reads 0.031 ± 0.47; that for SLTYCHSIIKDLETLIFRSK, 0.283 ± 0.61.
The result for VVVCAVHDDYSINRAIEDER reads -0.183 ± 0.4; that for LVGPAVVSYCCIRLISVVD, 1.94 ± 0.58.
Regarding HSGNTLIQMCVI, the amyloid nucleation score is -0.083 ± 0.61.

(Values after the supplement of paper PMC12042874.)
